How the values were obtained:
[1] = tested on: PatE2/PatE2K; experiment: C-terminal cleavage and macrocyclization of heterocyclized, N-terminally cleaved PatE2/PatE2K; format: biochemical; details: 100 μM substrate, 20 μM PatGmac, 24 hours at 37° C., 20 mM Bicine pH 8.1, 500 mM NaCl, 5% DMSO
Procedure: The final stage in patellamide production is C-terminal cleavage and macrocyclization. This step is catalyzed by the PatGmac domain. In order to macrocyclize our single cassette we incubated 100 μM heterocyclized (with either PatD or TruD) and N-terminally cleaved PatE2/PatE2K with 20 μM PatGmac for 24 hours at 37° C. in 20 mM Bicine pH 8.1, 500 mM NaCl, 5% DMSO to complete the reaction. Completeness of the reaction was confirmed by LCT-ESI MS (FIG. 16). […] PatGmac is also highly expressed in E. coli with between 200 and 250 mg purified protein obtained per liter of culture. The final macrocycles were purified by HPLC on a C18 peptide column. PatD and TruD heterocyclised macrocycles were subjected to HRMS and their structures confirmed by fragmentation (see FIGS. 19 to 21; Table 3). NMR analysis was carried out on TruD and PatD heterocyclised macrocycles, as shown in FIGS. 20 and 21) (Tables 7 and 8).

[2] = tested on: […]; experiment: Macrocyclization of substrate with modified recognition sequence (Asp to Arg); format: biochemical
Procedure: (§1) For other macrocyclization reactions, 100 μM peptide (e.g. VGAGIGFPAYDG (SEQ ID NO: 68), VGAGIGFPAYRG (SEQ ID NO: 69), or GVAGIGFPAYRG (SEQ ID NO: 84)) was incubated with 20 μM enzyme in a range of buffers for 24 h at 37° C. (see FIGS. 1 to 3).
PatGmac K598D produced cyclo[VGAGIGFP] with only 8% linear product, at a rate over an order of magnitude faster than wild-type PatGmac with VGAGIGFPAYDG (SEQ ID NO: 68) (FIGS. 2 and 3).

[3] = tested on: […]; experiment: Macrocyclization reaction, final product ratios by LC-ESI MS ion counts; format: biochemical
Procedure: For macrocyclization reactions comparing final product ratios after substrate depletion, 100 μM peptide (VGAGIGFPAYDG) (SEQ ID NO: 68) was incubated with 50 μM enzyme in 150 mM NaCl, 10 mM HEPES pH 8, 1 mM TCEP for 120 h at 37° C. Samples were analyzed by ESI or MALDI MS (LCT, Micromass or 4800 MALDI TOF/TOF Analyser, ABSciex).
LC-MS was performed using a Phenomenex Sunfire C18 column (4.6 mm×150 mm). Solvent A was H2O containing 0.1% formic acid and solvent B was MeOH containing 0.1% formic acid. Gradient: 0-2 min 10% B; 2-22 min 10% B to 100% B; 22-27 min 100% B; 27-30 min 100% B to 10% B. High resolution mass spectral data were obtained from a Thermo Instruments MS system (LTQ XL/LTQ Orbitrap Discovery) coupled to a Thermo Instruments HPLC system (Accela PDA detector, Accela PDA autosampler and Accela Pump). The following conditions were used: capillary voltage 45 V, capillary temperature 320° C., auxiliary gas flow rate 10-20 arbitrary units, sheath gas flow rate 40-50 arbitrary units, spray voltage 4.5 kV, mass range 100-2000 amu (maximum resolution 30000).
The peptide VGAGIGFPAYDG (SEQ ID NO: 68) was used as a substrate for PatGmac in biochemical assays (FIG. 4C[[c]]). The ratio of macrocyclized to linear product using this substrate peptide was determined by ion counts obtained from liquid chromatography-electrospray ionization mass spectrometry (LC-ESI MS).

[4] = tested on: […]; details: rates reported to date; cited from earlier work
[5] = tested on: […]; experiment: Macrocyclization reaction rate in different buffers (LC-MS); format: biochemical
Procedure: as §1
PatGmac is a slow enzyme; turnover rates reported to date are ˜1 per day (Lee, J., McIntosh, J., Hathaway, B. J. & Schmidt, E. W., 2009; McIntosh, J. A. et al., 2010). […] Adding DMSO gave a small increase in rate but shifted the optimum pH, thus a buffer containing 500 mM NaCl and 5% DMSO at pH 8 gave a reaction rate over 50 times greater (FIG. 1C). Under these conditions, about 7% linearized VGAGIGFP (SEQ ID NO: 70) byproduct was observed which can be separated from cyclo[VGAGIGFP] (SEQ ID NO: 70) by HPLC.

[6] = 100 μM peptide, 50 μM enzyme, 120 h at 37° C.
[7] = 500 mM NaCl and 5% DMSO at pH 8

B1: PatGmac: macrocyclase domain of PatG, residues 492-851 (protein)
chain: GEDEIESAGVSASEVESSATKQKVALHPHDLDERIPGLADLHNQTLGDPQITIVIIDGDPDYTLSCFEGAEVSKVFPYWHEPAEPITPEDYAAFQSIRDQGLKGKEKEEALEAVIPDTKDRIVLNDHACHVTSTIVGQEHSPVFGIAPNCRVINMPQDAVIRGNYDDVMSPLNLARAIDLALELGANIIHCAFCRPTQTSEGEEILVQAIKKCQDNNVLIVSPTGNNSNESWCLPAVLPGTLAVGAAKVDGTPCHFSNWGGNNTKEGILAPGEEILGAQPCTEEPVRLTGTSMAAPVMTGISALLMSLQVQQGKPVDAEAVRTALLKTAIPCDPEVVEEPERCLRGFVNIPGAMKVLFGQ
For B1, the “macrocyclized (ion count analysis)” value [1] was 100%, the “ratio of macrocyclized and linear products with VGAGIGFPAYRG” value [2] was “equal amounts of macrocyclized and linear products” and the “reaction rate with VGAGIGFPAYRG” value [2] was “reacted extremely slowly”. For the same molecule, the “product formed (macrocyclized vs linear)” value [3] was “only macrocyclized product”, the “Cyclic ion count (%) (M + H = 699)” value [3, 6] was 100% and the “Linear ion count (%) (M + H = 717)” value [3, 6] was 0%. The “Unprocessed ion count (%) (M + H = 1123)” value [3, 6] was 0%, the turnover rate [4] was roughly 1 per day and the “linearized VGAGIGFP byproduct” value [5, 7] was “about 7%”. For the same molecule, the reaction rate increase [5, 7] was “over 50 times”, the “rate change on increasing sodium chloride” value ([5]; NaCl from 150 mM to 500 mM) was “greater than an order of magnitude improvement in rate” and the “rate change on increasing pH” value ([5]; pH from 8 to 9, 500 mM NaCl) was “further tripled the rate”.

From patent US10494657B2, “In vitro production of cyclic peptides” (The University Court of the University of Aberdeen, priority 2012, dated 2019)
